Test results as given in patent US7005283B2, “Cytochrome P450 oxygenases and their uses” (Washington State University Research Foundation, priority 1999, dated 2006).

Columns and labels:
[1] = type: binding, Saccharomyces cerevisiae
Summary of the method: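 Full-length Taxus cytochrome P450 clones in pYeDP60 were expressed in yeast, with induction by galactose (10% final) for about 24 h. Whole cells were treated with CO, and CO-difference spectra were recorded spectrophotometrically against untreated cells.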

[2] = In vivo assay of yeast cells expressing recombinant oxygenases, radio-HPLC, substrate taxadiene; type: cell-based, Saccharomyces cerevisiae; conditions: assayed with Taxadiene; graded symbols, key not given
[3] = In vitro enzyme assay for taxoid oxygenase activity (baculovirus-Spodoptera expressed enzyme), substrate taxadiene; type: biochemical, Spodoptera frugiperda; conditions: 30 μM substrate, 32° C., 12 hours
Experimental: The standard enzyme assay for assessing oxygenase activity of the recombinant cytochrome P450 employed the following conditions: 25 mM HEPES buffer, pH 7.5, 400 μM NADPH, 300 μg protein and 30 μM substrate (taxadiene, taxadienol, or taxadienyl acetate) in a total volume of 1 mL. Samples were incubated at 32° C. for 12 hours, after which 1 mL of saturated NaCl solution was added to the reaction mixture, followed by extraction of the product with 2 mL of hexane/ethyl acetate (4:1, v/v). […]
For the functional characterization of clone F16, the recombinant baculovirus carrying the cytochrome P450 clone F16 ORF was coexpressed with a recombinant baculovirus carrying the Taxus NADPH:cytochrome P450 reductase gene. […] The viral titers were determined according to the End-Point Dilution method (O'Reilly et al., Baculovirus Expression Vectors, A Laboratory Manual, New York, N.Y., Freeman and Company, 1992). […]

[4] = In vitro enzyme assay for taxoid oxygenase activity (baculovirus-Spodoptera expressed enzyme), substrate taxadienol; type: biochemical, Spodoptera frugiperda
Experimental: The standard enzyme assay for assessing oxygenase activity of the recombinant cytochrome P450 employed the following conditions: 25 mM HEPES buffer, pH 7.5, 400 μM NADPH, 300 μg protein and 30 μM substrate (taxadiene, taxadienol, or taxadienyl acetate) in a total volume of 1 mL. Samples were incubated at 32° C. for 12 hours, after which 1 mL of saturated NaCl solution was added to the reaction mixture, followed by extraction of the product with 2 mL of hexane/ethyl acetate (4:1, v/v). The extracts were dried and dissolved in acetonitrile for product analysis by radio-HPLC [column: Alltech Econosil C18 5 μm particle size (250 mm×4.6 mm): solvent system A: 0.01% (v/v) H3PO4, 2% acetonitrile, 97.99% H2O; solvent system B: 0.01% H3PO4, 99.99 acetonitrile; gradient: 0–5 minutes, 100% A; 5–15 minutes, 0–50% B; 15–55 minutes, 50–100% B; 55–65 minutes, 100% B; 65–70 minu A; 70–75 minutes, 100% A; flow rate 1 mL/minute; for detection, a radio-chromatography detector (Flow-One®-Beta Series A-100, Radiomatic) was used].
For the functional characterization of clone F16, the recombinant baculovirus carrying the cytochrome P450 clone F16 ORF was coexpressed with a recombinant baculovirus carrying the Taxus NADPH:cytochrome P450 reductase gene. To the insect cell suspension, the two recombinant baculoviruses were added at a multiplicity of infection of 1–5. The viral titers were determined according to the End-Point Dilution method (O'Reilly et al., Baculovirus Expression Vectors, A Laboratory Manual, New York, N.Y., Freeman and Company, 1992). For infection, the cells were incubated for 1 hour at 28° C. and 80 rpm. The cell culture volume was brought to 50 mL with standard cell culture medium, and hemin (Sigma) was added to a final concentration of 2 μg/mL. The infected cells were incubated for 48 hours in a gyratory shaker at 28° C. and 140 rpm. The infected insect cells were harvested from the cell culture medium by centrifugation as described above, and washed twice with PBS (50 mM KH2PO4, pH 7.5, 0.9% NaCl). […]

B1: clone F16: Taxus cuspidata cytochrome P450 taxane 9α-hydroxylase, full-length clone, SEQ ID NO: 82 (nt) / 88 (aa) (protein, listed as Taxus cuspidata)
chain: MDALKQLEVSPSILFVTLAVMAGIILFFRSKRHSSVKLPPGNLGFPLVGETLQFVRSLGSSTPQQFIEERMSKFGDVFKTSIIGHPTVVLCGPAGNRLVLSNENKLVQMSWPSSMMKLIGEDCLGGKTGEQHRIVRAALTRFLGPQALQNHFAKMSSGIQRHINEKWKGKDEATVLPLVKDLVFSVASRLFFGITEEHLQEQLHNLLEVILVGSFSVPLNIPGFSYHKAIQARATLADIMTHLIEKRRNELRAGTASENQDLLSVLLTFTDERGNSLADKEILDNFSMLLHGSYDSTNSPLTMLIKVLASHPESYEKVAQEQFGILSTKMEGEEIAWKDLKEMKYSWQVVQETLRMYPPIFGTFRKAITDIHYNGYTIPKGWKLLWTTYSTQTKEEYFKDADQFKPSRFEEEGKHVTPYTYLPFGGGMRVCPGWEFAKMETLLFLHHFVKAFSGLKAIDPNEKLSGKPLPPLPVNGLPIKLYSRS
[1]
  CO diff. spec.: +++
[2]
  product identified HPLC peak: No
[3]
  conversion of taxadiene to an oxygenated product: not converted detectably
[4]; 30 μM substrate, 32° C., 12 hours, GC-MS
  conversion of taxa-4(20),11(12)-dien-5α-ol: converted most efficiently to a diol product
[4]; baculovirus-Spodoptera expression
  enzyme function assigned from screening: cytochrome P450 taxane-9α-hydroxylase
[4]; preparative incubation, 1H- and 13C-NMR
  identity of the product of the oxygenase reaction with taxadienol: taxa-4(20),11(12)-dien-5α,9α-diol
